Experimental data: US11434278

Target: 5T4 antigen on the cell surface (A431 cells and 5T4 over-expressing recombinant MDA-MB-231 cells) (human) (UniProt Q13641)
Experiment: flow cytometry (MFI) on 5T4-expressing cells, anti-Fc FITC detection

5T4 antigen on the cell surface (A431 cells and 5T4 over-expressing recombinant MDA-MB-231 cells) (human), sequence (Q13641 32-420): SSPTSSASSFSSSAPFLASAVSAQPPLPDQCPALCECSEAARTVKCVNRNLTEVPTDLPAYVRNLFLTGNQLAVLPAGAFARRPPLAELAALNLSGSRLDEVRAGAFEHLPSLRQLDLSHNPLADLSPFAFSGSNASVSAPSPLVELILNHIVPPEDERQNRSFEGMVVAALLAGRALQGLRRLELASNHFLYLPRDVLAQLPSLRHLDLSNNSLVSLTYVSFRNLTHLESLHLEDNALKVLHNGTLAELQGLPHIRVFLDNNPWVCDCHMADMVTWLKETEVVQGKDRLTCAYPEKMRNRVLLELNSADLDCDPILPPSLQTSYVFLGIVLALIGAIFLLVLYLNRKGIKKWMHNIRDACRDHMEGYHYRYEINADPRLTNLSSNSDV

- fold less binding than the anti-5T4 scFvFc molecules: 200 fold less
Substance: non-binding scFvFc fusion protein
